Assay results from the DeepSol protein solubility set.

assay: soluble on expression in E. coli; label from the status in PepcDB or PDB records

Soluble on expression in E. coli, not soluble:
MGSDKIHHHHHHMSTTPTTRLILETLLPHLKVAAAYAHFLQPKIAALPAKGEGNNFFSAALTDADVAIQNLVEVVLLGTFPDIRFYGEEYASSNNTKYFRATELGSKGDYLVTLDPIDGTKFYMDGHSNYQIILSILNSDDFEAVIAISPAQNIYFYALRGEGAFKGTLEMSLEACAPLHITSAKPAILLGWAMNSIGHLLKDRYQVIDIAADYSSDIQIPNLNGILTGDLSGAVIKSGKFIDVAALAFIVKEAGWIVTTLDGSTLPPLHTCQNYSLPGLVIATSKSVHQDLLKAVQSLAV
MGSDKIHHHHHHMSTVQDASSVGSLFGAEAAKTSKSGSSDTQDRFLSLLVAQMKNQDPLNPLDNAEVTSQMAQLSTVEGIENMNKSLEALASSMGASQMSQAANLIGHAVLVPGNAVGPGQLENLMGFELTRPADKVTLDIHDAGGNLVRSVDLGPRDAGVNVVAWDGLTGSGAVAPAGAYSFKVSAVQGGQAQSSIALNVGLVNSVSQNSEGVQLNLAGNGSVGYADIREIF
MGSDKIHHHHHHMSVQISVVAATLNEIDNIEQFIDGVEGVLKGMEFEIIVVDDNSSDGTKEYLARRMNEDTHVVVIENPYRFGMLRSLKLGIEKAGGEIVLVMDADMQHPPSAIPKLISRIVDGCDIVVGSRYVDGGSAGDRDAFRAALSRGAEFLAHALVPSSRMTSDPMSGFFAFRRDLRHDFAYRQTFATADYGAKILLIILAENRHAKVCDVGYVFQSRMRGKSKIVSGTSFLKRYLAELFEVMKLERRYRHMQ
MGSDKIHHHHHHMTAATQAKHTPDDLSVAPRDIRFDLTSAQKGHWLGGDPVGTAVFNALSLTFPDGERMFMDAVKAYRDRLSGKLLEDAKGFIAQEAIHSREHHHLNSLIDRERYPVAEIEETIRGRVKMARERGPMAMLISTIALEHFTAMMAEMHARHRNLFDTTDPEIEKLWRWHAVEETEHKAVAYDVFLEVTKDWSPLKRYMIRCRAMVFVTIMFTRNISRYAARLLEADGYTPKAALKAVKRFVWGDPGIFRRGWKTYFAWYRPGFHPWDQDDRPLVADWMAEFNAAAVRV
MGSDKIHHHHHHMTAMRGDGGRVLHTGFGVVRGVLFDIDDTLVDLEYAMTTALRDVSEHLLPGLDQAGWEKFGRIFTHETTHFYDRYLAGELTFNEQRLLRGRAALGHFGVELEEGEESHAWVTSYAALQHGYVRAFEDVAPVLDALDAAGIPYGAVSNNVHDYQRVKLDAAGLQRITVLVGTDTLGVPKPDPAIYLEGVRLLGSSAAETLYVGDNRLLDAEGSTAAGLLGVWLNRSGETESAFAGHQVGSLAELLG
MGSDKIHHHHHHMTAQSSHMLVLQSTVTSAFKTIASEKQGLEALEEALLGYLSSAFQAAVQTIRNANGHVVITGLGKSGHIGAKIAATLASTGTPAFFVHAAEANHGDLGMIGSDDVILALSWSGETSELSGIINHAARFRTPLIAMTSGEHSVLGRQADIVLLLPKIEEACPHGLAPTTSTIMQLAMGDALAVALLEMRGFTATDFKIYHPGGSLGASLKYVRDIMHQGESIPLVAQGTAMAKAMSVLVEKHFGCVGVVNQEGELIGIVTDGDLARNIHVNLSKFNVDELMTKDPKIVEPNTLVGAATAFINEHHIGAFFVVENKKPIGIVHFHDLLRIGAA
MGSDKIHHHHHHMTAQTHNDVAVCWNQNANQWTSDVRNGYDVYRDFFTLPAFLQFLPTMADLNVIDFGCGEGSNTRHFAQMGAKVVGIDISNGLIEHARQAERVDPVGITYKIVSYSSDTGFPASSFDAVVSTMALMDGPDLQGAMHEAYRLLRPGGFVAFSVLHPCFITPGWQWQKDENGQTTGLCTSRYFDKSGFTENWKFGNRPKDENVAPFAVPRFPRTIGDYINAVASVGFRISKIEEPQPTEEACKAIPQLRRWRDLGAFLLLVIAERPK
MGSDKIHHHHHHMTDEGALFYEHSRRALSEIQNAAALLDQRKINATGRLRMSVPVLFGQLFAAPLMVKFAQQHADLQLEISFNDRNVDLIEEGFDLCIRIGALPDTTQLVAKPIGEHRMLLCASPDYLNKAGPVEHIEDLDQHATIADPHFGQMQKWRLQKENDEPLFIKPKAKLLLNDLQAIKNAALAGAGIAWLPDWLIQNELQDGKLVQVLDAMSSTAFPIHLVWPTLPFMPLKTRLAIDYLAQHLPPELNK
MGSDKIHHHHHHMTDQTRFFDEMTGGAPQARGPYQPYDAWFQGEDLDEIRKKSAEAEGFFRRTGITFNVYGQTEADERLIPFDVVPRIISGREWTRLTRGIEQRVRALNAFLYDIYHRQEILRAGRVPRELIDGNEAFLPQMMGVAPPGGIYTHIVGTDLVRTGEDEFFVLEDNARTPSGVSYMLENRETMLQMFPDLFSRIKVRPVQNYPANLRRSLAACAPNACTGECTVAVLTPGIHNSAYFEHAFLADQMGVELVEGHDLRVKDGRIAMRTTEGYKAIDVLYRRVDDDFLDPLNFNPDSMLGVPGIMDVYRAGGITIANAPGTGISDDKALYSYMPDIIEFYTGEKALLQNVPTHRCSEPEALKYVLDNLAELVVKEVHGSGGYGMLVGPAASKTEIEAFRKKLEANPSNYIAQPTLALSTCPILTEAGLAPRHVDLRPFVLMAPNKTTITPGGLTRVALAEGSLVVNSSQGGGTKDTWVLED
MGSDKIHHHHHHMTEQFNINQFNCSISGKGQTLIWAHGSTGCIQSEDAIGLYAWHRFPKKLQLIRYDAVGHGLSSAGKCVEDYLWPELANDMISVATHCKATSELILGGQSMGSATSLYAALKHPGMVKGLILMNPPNAWHSRAAQVDEYHKMAKAARIFGGKGLAKISAKHWDKLLPNWLINGHEHSVLGMLDGLKQMTSQTLDQLFRAAALNDLPNKQLLSGLTMPTLILAWHGDKTHPVETAIELHQTLPNSTLHIADSVDEVNEWPELISEFCFRL
MGSDKIHHHHHHMTEQNQKQLGNTLWSIADQLRGAMDADDFRDYMLSFLFLRYLSDNYETAAKKELGRDYPDVGGDARKVPLALWYANNVDDIPAFEKQMRRKVHYVIQPAHLWNSIANLARTQNPDLLDTLQAGFKYIETESFESTFQGLFSEIDLSSPKLGKSYSDRNAKLCTIIQKIAEGLAAFSTNIDALGDAYEYLIGQFAAGSGKKAGEFYTPQQISDILSAIVTLDSQEPKTGTKKRLDSVLDFACGSGSLLLNVRKKVNQAGGSIGKIYGQEKNITTYNLARMNMLLHGVKDTEFEIFHGDTLLNEWDMLREQNPARKPSFDAVVANPPFSYRWEPTDALADDVRFKSHGLAPKSAADFAFLLHGFHYLKDEGVMAIILPHGVLFRGGAEERIRTKLLKDGHIDTVIGLPANLFYSTGIPVCILVLKKCKKPDDVLFINAAEHFVKGKRQNHLSDEHIAKIIETYQFRTEEPRYARRVDMAEIEKNDFNLNISRYISTAVDEEEIDLTATHANLVNIEKAIQQATAKHNEFLKELGMPLLP
MGSDKIHHHHHHMTFKNDVDGCSYPGILSASRSTDIPAFYAEWFSRRLRDGYVVWKSPFNQKCYSVCFEKAGGIVFWTKNPKPLMPFLDEVSELGYDYYFQFTVNDYESEGFEPNVPPLDERIETFRSLSQKLGKERVIWRFDPICLTRELDVEGIMARLRSIGECLKGYTEQLVISFVDVHAYTKVQRNIKTADGFCLREPSMEEQDELARRISSYAKEIGVSPSACGERRSFAHFGILPNKCIDGELFKRICRKGNIKLQKHLGTYIDQYSLLSPQKKDVTLCKDKGQRKECGCVESKDIGMYNTCNHMCVYCYANTSQRVVEKNRVLHDVNGESLIPTSRTVEE
MGSDKIHHHHHHMTHLKIFLLLIVCALSVLDGKAQTGIALTDELNGKRIGVIGDSYVRNHKEPFENTWHYKFAKKHGMEYFNYGKNGNSIAYSSPRWGKAMYLRYAEMADSLDYVIVIGGHNDAFKLDSIGGIDNFKDKMEILCKGLVEKYPTAKIFFFTRWNCKNFKGSDSEKVVDAMIEVCGNYSIPIFDCARKGSIYADNDTFRRIYFQKSKNNTDTAHLNSKGHDRFLKVAESFLLQY
MGSDKIHHHHHHMTINFRRNALQLSVAALFSSAFMANAADVPQVKVTVTDKQCEPMTITVNAGKTQFIIQNHSQKALEWEILKGVMVVEERENIAPGFSQKMTANLQPGEYDMTCGLLTNPKGKLIVKGEATADAAQSDALLSLGGAITAYKAYVMAETTQLVTDTKAFTDAIKAGDIEKAKALYAPTRQHYERIEPIAELFSDLDGSIDAREDDYEQKAADPKFTGFHRLEKALFGDNTTKGMDQYAEQLYTDVVDLQKRISELAFPPSKVVGGAAGLIEEVAASKISGEEDRYSHTDLWDFQANVEGSQKIVDLLRPQLQKANPELLAKVDANFKKVDTILAKYRTKDGFETYDKLTDADRNALKGPITALAEDLAQLRGVLGLD
MGSDKIHHHHHHMTIYYNEMVDGGLVREPYAMLSDWIETMPAEIRQMKQAEAEALFRRIGITFAVYGEGGDPDRLIPFDMMPRVFLQGEWRRLERGIKQRARGLNAFLRDVYGRGEIVRAGRIPAPLVYRNAAYEKAVVGFVPPRGVFSHIVGIDIVRTGRDEFHVLEDNCRTPSGVSYMLENREIMMRMFPALFRNNRIEPVDQYPELLRRTLASVAPAKCEGEPTVVILTPGHYNSAYYEHSFLANLMGVELVEGSDLFVDGGFVYMRTTQGPKRVDVIYRRIDDQFLDPLCFRRDSMLGVPGLMDVWRSGGVSIASAPGAGVADDKAVYTFVPEMIRFYLGEEPILNNVQTWTLWKDDDYRYVMANLKDLVVKEVHGSGGYGMLIGPRATKAEIEAFAERIKADPGNYIAQPTLALSTSPTFVDEGVAPRHVDLRPFCLCGDRIELVPGGLTRVALREGSLVVNSSQGGGVKDTWVLSE
MGSDKIHHHHHHMTKDMQTFTLVPQGSLEGYIRAANAYPMLTAEEERALAERLHYQGDLEAAKHLILSHLRFVIHVARNYSGYGLPQADLIQEGNIGLMKAVRRFNPEVGVRLVSFAVHWIKAEIHEYVLRNWRIVKVATTKAQRKLFFNLRKAKTRLGWFNQDEVELVARELGVTTKDVREMESRMAAQDMTFDPTPEEDSHDGKAMSPMLYLQDKSSDFADGIEEDNWDTHAADKLTYALEGLDERSQHIIRARWLDDDNKSTLQELADQYGVSAERVRQLEKNAMKKLRAAIEA
MGSDKIHHHHHHMTKTKNEKEEFIRVGTTLYKLVNQPRLNGGYVRKRIVWNNETLRQDYGKDYLATVPKYDGFCTVPNHVDYRPVVDKFLNLYEPIEHCPQQGEFPCIQSLVRHIFGEQYELGMDYLQLLYLQPVQKLPILLLVSEERNTGKSTFLNFLKALFQNNVTFNTNEDFRSQFNSDWAGKLLIVVDEVLLNRREDSERLKNLSTTLSYKVEAKGKDRDEIAFFAKFVLCSNNEYLPVIIDAGETRYWVRKIDRLQSDDTDFLQKLKAEIPAFLHFLQHRQLSTEKESRMWFAPSLLHTEALRKIIRSNRNRLEIEIHELILDIMDSVGTDTFSFCYNDLLLLLVHSQVKVEKYQVRKVLQECWKLTPASNGLTYTTYQFNYNRECRYEPIKRVGRFYTVTRKQLDSL
MGSDKIHHHHHHMTLSITSNFDAGAIDVVSCERADAIRLRVRGDNRSEFAQWFYFRLTGARGERCVMTFENANDCAYPAGWRDYRAVASYDRVNWFRVPTSYDGQMLTIDHTPEFDSIHYAYFEPYSEERHSEFLGAVQQMPQASVVELGRTVEGRPMSLVVLGTPDEAGAAKKKVWIIARQHPGESMAEWFIEGLVKRLVGWGDWSGDPVARKLYDHATFYIVPNMNPDGSVHGNLRTNAAGANLNREWMEPDAERSPEVLVVRDAIHAIGCDLFFDIHGDEDLPYVFAAGSEMLPGFTEQQRVEQSAFIDSFKRASPDFQDEHGYPPGKYREDAFKLASKYIGHRFGCLSLTLEMPFKDNANLPDEHIGWNGARSASLGAAMLGAILEHVRAFA
